Source: patent US20140087995A1 (published 2014)
Numbered stars: 1 amine (or outer) side, 2 acyl side, 3 side chain; on linkers, the order of the positions; unused ones are H or OH. Bridge positions count the residues as written; N and C are the ends. Side chains are listed from the residue outwards. Ends that are not written are not given here. * marks the point of attachment. C20 diacid = O=C(O)CCCCCCCCCCCCCCCCCCC(=O)*; γGlu = O=C(O)[C@H](CCC(=O)[*:2])N[*:1]; AEEA = NCCOCCOCC(=O)O

T1: rat calcitonin receptor (rat, UniProt P32214 25-516)
T1 construct: whole, on cells; also called rCTR; rat calcitonin (a) receptor
T1 sequence (looked up): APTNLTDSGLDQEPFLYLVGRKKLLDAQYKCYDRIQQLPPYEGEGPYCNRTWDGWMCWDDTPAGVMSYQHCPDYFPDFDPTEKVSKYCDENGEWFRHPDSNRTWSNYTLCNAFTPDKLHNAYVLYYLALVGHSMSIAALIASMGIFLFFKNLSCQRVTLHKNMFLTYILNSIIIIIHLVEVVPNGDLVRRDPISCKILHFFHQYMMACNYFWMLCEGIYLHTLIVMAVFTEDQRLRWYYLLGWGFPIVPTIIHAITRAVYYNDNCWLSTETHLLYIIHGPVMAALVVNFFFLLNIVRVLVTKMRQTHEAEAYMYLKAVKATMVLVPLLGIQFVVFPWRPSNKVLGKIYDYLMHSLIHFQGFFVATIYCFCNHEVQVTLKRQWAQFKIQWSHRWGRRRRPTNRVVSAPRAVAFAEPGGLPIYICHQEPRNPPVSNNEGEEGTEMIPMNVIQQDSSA

T2: human calcitonin receptor (human, UniProt P30988 25-474)
T2 construct: whole, on cells; also called hCTR; hCT
T2 sequence (looked up): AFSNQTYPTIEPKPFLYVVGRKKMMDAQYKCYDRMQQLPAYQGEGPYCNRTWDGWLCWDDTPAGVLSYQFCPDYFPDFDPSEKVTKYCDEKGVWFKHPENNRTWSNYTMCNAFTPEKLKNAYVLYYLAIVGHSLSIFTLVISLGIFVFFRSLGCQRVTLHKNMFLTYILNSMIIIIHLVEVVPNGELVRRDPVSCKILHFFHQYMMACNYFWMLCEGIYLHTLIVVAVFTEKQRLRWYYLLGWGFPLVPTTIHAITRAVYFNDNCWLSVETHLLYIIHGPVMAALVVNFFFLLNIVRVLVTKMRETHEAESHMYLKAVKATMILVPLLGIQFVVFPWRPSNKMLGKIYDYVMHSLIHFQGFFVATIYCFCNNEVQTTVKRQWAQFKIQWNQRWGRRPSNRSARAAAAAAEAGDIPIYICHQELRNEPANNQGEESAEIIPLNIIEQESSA

T3: rat amylin receptor (rat calcitonin receptor + rat RAMP 3) (rat, UniProt P32214 25-516; Q9JJ73 23-147)
T3 construct: whole, on cells; also called rAmylin-R; rat amylin 3(a) receptor
T3 sequence (looked up) 1: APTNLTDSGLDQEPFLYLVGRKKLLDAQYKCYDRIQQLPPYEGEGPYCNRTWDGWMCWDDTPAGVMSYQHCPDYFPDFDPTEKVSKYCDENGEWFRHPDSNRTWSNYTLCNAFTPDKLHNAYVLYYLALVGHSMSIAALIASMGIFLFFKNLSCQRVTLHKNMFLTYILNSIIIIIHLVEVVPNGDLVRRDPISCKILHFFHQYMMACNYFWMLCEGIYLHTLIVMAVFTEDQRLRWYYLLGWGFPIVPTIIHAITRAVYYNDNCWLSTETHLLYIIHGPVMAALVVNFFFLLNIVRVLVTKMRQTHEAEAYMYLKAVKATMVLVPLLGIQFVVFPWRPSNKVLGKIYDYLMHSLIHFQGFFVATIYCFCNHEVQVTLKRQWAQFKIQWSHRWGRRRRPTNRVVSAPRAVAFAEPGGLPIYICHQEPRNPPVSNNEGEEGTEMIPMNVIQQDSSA
T3 sequence (looked up) 2: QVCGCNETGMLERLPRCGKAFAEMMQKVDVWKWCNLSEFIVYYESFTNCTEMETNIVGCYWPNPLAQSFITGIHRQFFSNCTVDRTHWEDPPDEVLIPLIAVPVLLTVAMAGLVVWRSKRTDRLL


Tests used:
rat calcitonin receptor [1] = molecular target: T1, rat calcitonin receptor; experiment: ratio of binding IC50s: rat calcitonin receptor over rat amylin receptor (reference)
[2] = molecular target: T2, human calcitonin receptor; experiment: ratio of binding IC50s: human calcitonin receptor over human amylin receptor (reference)
Protocol: The resulting pellet was resuspended, homogenized and centrifuged (20.000 rpm, 15 min) in a buffer containing 20 mM Na-HEPES and 0.1 mM EDTA (pH 7.4, buffer 2). The resulting pellet was resuspended in buffer 2 and protein concentration was measured (BCA protein Assay, Pierce). The homogenate was kept cold during the whole procedure. The membranes were kept at −80° C. until use. The assay was performed in a 384 well Optiplate (PerkinElmer) in a total volume of 40 ul. Membranes were mixed with SPA beads. Final concentration of membranes 35 ng/μL final and SPA beads was 0.05 mg/well. Test-compounds were dissolved in DMSO and further diluted in assay buffer (50 mM Hepes, pH 7.4, 1 mM CaCl2, 5 mM MgCl₂, 0.1% OA and 0.02% Tween20). […] The final mixture was incubated with shaking at 400 rpm for 120 min at 25° C. prior to centrifugation (1500 rpm, 10 min). Samples were analyzed on TopCounter™ (Packard). The IC₅₀ was calculated using (one site binding competition analysis) GraphPad Prism5 as a measure of receptor affinity.
Membranes were prepared in the following way; the cells were rinsed with PBS and incubated with Versene for approximately 5 min before harvesting. The cells were flushed with PBS and the cell-suspension was centrifuged for 5 min at 1000 rpm. Cells were homogenized (Ultrathurrax) in a buffer containing 20 mM Na-HEPES and 10 mM EDTA (pH 7.4) and centrifuged at 20.000 rpm for 15 min. The resulting pellet was resuspended, homogenized and centrifuged (20.000 rpm, 15 min) in a buffer containing 20 mM Na-HEPES and 0.1 mM EDTA (pH 7.4, buffer 2). The resulting pellet was resuspended in buffer 2 and protein concentration was measured (BCA protein Assay, Pierce). The homogenate was kept cold during the whole procedure. The membranes were kept at −80° C. until use. Assay was performed in a 384 well Optiplate (PerkinElmer) in a total volume of 40 ul. Membranes were mixed with SPA beads.

rat calcitonin receptor [3] = molecular target: T1, rat calcitonin receptor; experiment: SPA competition with 125I-calcitonin, membranes of BHK cells with rat calcitonin receptor (Assay VIII)
[4] = molecular target: T3, rat amylin receptor (rat calcitonin …); experiment: SPA competition with 125I-rat amylin, membranes of BHK cells with rat calcitonin receptor + rat RAMP3 (Assay VI)

Row | Ratio rCT/rAmylin binding (rat calcitonin receptor [1]) | Ratio hCT/hAmylin binding [2] | IC50 (rat calcitonin receptor [3]) [nM] | IC50 [4] [nM] | Binder
1 | 104 | 65.3 | 46.8 | 0.45 | K([AEEA-γGlu-C20 diacid])CNTATCATQRLAHFLRHSSPNFGAIPSSTNVGSNTY-NH2 (disulfide 2-7; N-terminus assumed; SMILES CC[C@H](C)[C@H](NC(=O)[C@H](C)NC(=O)CNC(=O)[C@H](Cc1ccccc1)NC(=O)[C@H](CC(N)=O)NC(=O)[C@@H]1CCCN1C(=O)[C@H](CO)NC(=O)[C@H](CO)NC(=O)[C@H](Cc1c[nH]cn1)NC(=O)[C@H](CCCNC(=N)N)NC(=O)[C@H](CC(C)C)NC(=O)[C@H](Cc1ccccc1)NC(=O)[C@H](Cc1c[nH]cn1)NC(=O)[C@H](C)NC(=O)[C@H](CC(C)C)NC(=O)[C@H](CCCNC(=N)N)NC(=O)[C@H](CCC(N)=O)NC(=O)[C@@H](NC(=O)[C@H](C)NC(=O)[C@@H]1CSSC[C@H](NC(=O)[C@@H](N)CCCCNC(=O)COCCOCCNC(=O)CC[C@H](NC(=O)CCCCCCCCCCCCCCCCCCC(=O)O)C(=O)O)C(=O)N[C@@H](CC(N)=O)C(=O)N[C@@H]([C@@H](C)O)C(=O)N[C@@H](C)C(=O)N[C@@H]([C@@H](C)O)C(=O)N1)[C@@H](C)O)C(=O)N1CCC[C@H]1C(=O)N[C@@H](CO)C(=O)N[C@@H](CO)C(=O)N[C@H](C(=O)N[C@@H](CC(N)=O)C(=O)N[C@H](C(=O)NCC(=O)N[C@@H](CO)C(=O)N[C@@H](CC(N)=O)C(=O)N[C@H](C(=O)N[C@@H](Cc1ccc(O)cc1)C(N)=O)[C@@H](C)O)C(C)C)[C@@H](C)O, synthetic analogue of human amylin; also called compound 69)
2 | 259 | 247 | 221 | 0.851 | K([AEEA-γGlu-C20 diacid])CNTATCATQRLAAFLRHSSPNFGAIPSSTPVGSNTY-NH2 (disulfide 2-7; N-terminus assumed; SMILES CC[C@H](C)[C@H](NC(=O)[C@H](C)NC(=O)CNC(=O)[C@H](Cc1ccccc1)NC(=O)[C@H](CC(N)=O)NC(=O)[C@@H]1CCCN1C(=O)[C@H](CO)NC(=O)[C@H](CO)NC(=O)[C@H](Cc1c[nH]cn1)NC(=O)[C@H](CCCNC(=N)N)NC(=O)[C@H](CC(C)C)NC(=O)[C@H](Cc1ccccc1)NC(=O)[C@H](C)NC(=O)[C@H](C)NC(=O)[C@H](CC(C)C)NC(=O)[C@H](CCCNC(=N)N)NC(=O)[C@H](CCC(N)=O)NC(=O)[C@@H](NC(=O)[C@H](C)NC(=O)[C@@H]1CSSC[C@H](NC(=O)[C@@H](N)CCCCNC(=O)COCCOCCNC(=O)CC[C@H](NC(=O)CCCCCCCCCCCCCCCCCCC(=O)O)C(=O)O)C(=O)N[C@@H](CC(N)=O)C(=O)N[C@@H]([C@@H](C)O)C(=O)N[C@@H](C)C(=O)N[C@@H]([C@@H](C)O)C(=O)N1)[C@@H](C)O)C(=O)N1CCC[C@H]1C(=O)N[C@@H](CO)C(=O)N[C@@H](CO)C(=O)N[C@H](C(=O)N1CCC[C@H]1C(=O)N[C@H](C(=O)NCC(=O)N[C@@H](CO)C(=O)N[C@@H](CC(N)=O)C(=O)N[C@H](C(=O)N[C@@H](Cc1ccc(O)cc1)C(N)=O)[C@@H](C)O)C(C)C)[C@@H](C)O, synthetic analogue of human amylin; also called compound 72)
